Assay results as given in patent WO2007014744A2 (dated 2007).

Key:
[1] = target: the molecule itself; assay: BS3 chemical crosslinking, gel filtration and native PAGE; multimers up to hexamers, native mass about 500 kDa
[2] = target: T1, fibroblast activation protein (FAP) (UniProt Q12884 1-760, limits assumed); assay: flow cytometry on HT1080FAP against HT1080 cells, 5 ug/ml fusion protein, anti-Flag M2 detection
T1 construct: whole, on cells; also called FAP antigen; FAP on HT1080FAP cells
T1 sequence (looked up): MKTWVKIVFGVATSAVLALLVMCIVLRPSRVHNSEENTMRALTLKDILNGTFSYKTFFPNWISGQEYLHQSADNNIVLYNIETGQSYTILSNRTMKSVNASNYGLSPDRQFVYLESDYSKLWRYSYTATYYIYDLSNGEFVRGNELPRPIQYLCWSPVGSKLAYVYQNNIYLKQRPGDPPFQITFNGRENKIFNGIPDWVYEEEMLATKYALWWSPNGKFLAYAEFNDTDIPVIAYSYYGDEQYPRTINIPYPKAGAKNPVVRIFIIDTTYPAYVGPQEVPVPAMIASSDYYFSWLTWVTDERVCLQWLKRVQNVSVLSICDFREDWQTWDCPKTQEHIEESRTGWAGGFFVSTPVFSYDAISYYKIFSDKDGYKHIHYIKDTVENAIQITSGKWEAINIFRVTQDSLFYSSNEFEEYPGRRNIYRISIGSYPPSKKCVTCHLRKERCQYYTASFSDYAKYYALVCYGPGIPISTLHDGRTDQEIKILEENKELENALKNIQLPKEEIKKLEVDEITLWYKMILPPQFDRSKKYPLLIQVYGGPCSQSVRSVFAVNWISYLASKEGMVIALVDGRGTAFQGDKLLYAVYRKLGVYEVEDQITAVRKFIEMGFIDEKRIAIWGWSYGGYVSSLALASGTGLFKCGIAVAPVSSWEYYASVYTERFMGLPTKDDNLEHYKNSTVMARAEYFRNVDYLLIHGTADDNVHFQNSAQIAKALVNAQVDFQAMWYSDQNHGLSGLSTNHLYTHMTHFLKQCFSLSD

B1: CD95-TNC-PL-SC40-CD95L prodrug (other)
chain: LEVARLSSKSVNAQVTDINSKGLELRKTVTTVETQNLEGLHHDGQFCHKPCPPGERKARDCTVNGDEPDCVPCQEGKEYTDKAHFSSKCRRCRLCDEGHGLEVEINCTRTQNTKCRCKPNFFCNSTVCEHCDPCTKCEHGIIKECTLTSNTKCKEEGSRSNPRDIACGCAAAPDIKDLLSRLEELEGLVSSLREQGTGGGSGRPPRDHPVGLLARGGGHPVGLLARGGGHPVGLLARTGLEQVQLVQSGGGMVEPGGSLRLSCAASGFTFSNAWMSWVRQAPGKGLEWVGRIKSKAGGGTAEYAAPVKGRFTISRDDSQNTLYLQMNSLKTDDTAVYYCTTHVYGAPRNWGQGSLVTVSSASTKGPKLEEGEFSEARVQSVLTQPPSVSAAPGQKVTISCSGSSSNIGNNYVSWYVQLPGTAPKLLIYDNNKRFSGVPDRFSGSKSGTSATLGITGLQTGDEADYYCGAWDGSLREAVFGGGTKVTVLGAAAVDDYKDDDDKEFTREKKELRKVAHLTGKSNSRSMPLEWEDTYGIVLLSGVKYKKGGLVINETGLYFVYSKVYFRGQSCNNLPLSHKVYMRNSKYPQDLVMMEGKMMSYCTTGQMWARSSYLGAVFNLTSADHLYVNVSELSLVNFEESQTFFGLYKL
notes: Made in HEK293 cells and purified on anti-Flag M2 agarose; Forms covalently associated trimers through the tenascin domain; Crosslinking, gel filtration and native PAGE (about 500 kDa) point to hexamers, i.e. dimers of trimers; also called SC40-CD95L-PD; CD95-TNC-PL-SC40-F-CD95L
binding result [1]: binds | binding result [2]: binds
